# Results taken from patent US20260176365A1 (SYNTHEKINE, published 2026).
# Where a chain is given by its changes, count along the chain named.
# T1: mgp130 ECD antigen (mouse, UniProt Q00560 23-617)
# T1 construct: Antigen of biopanning and PE-ELISA; The immunogen was an ECD-human IgG1 hinge-Fc fusion; also called ECD of mouse gp130; ngp130 ECD antigen (so in the source)
# T1 sequence: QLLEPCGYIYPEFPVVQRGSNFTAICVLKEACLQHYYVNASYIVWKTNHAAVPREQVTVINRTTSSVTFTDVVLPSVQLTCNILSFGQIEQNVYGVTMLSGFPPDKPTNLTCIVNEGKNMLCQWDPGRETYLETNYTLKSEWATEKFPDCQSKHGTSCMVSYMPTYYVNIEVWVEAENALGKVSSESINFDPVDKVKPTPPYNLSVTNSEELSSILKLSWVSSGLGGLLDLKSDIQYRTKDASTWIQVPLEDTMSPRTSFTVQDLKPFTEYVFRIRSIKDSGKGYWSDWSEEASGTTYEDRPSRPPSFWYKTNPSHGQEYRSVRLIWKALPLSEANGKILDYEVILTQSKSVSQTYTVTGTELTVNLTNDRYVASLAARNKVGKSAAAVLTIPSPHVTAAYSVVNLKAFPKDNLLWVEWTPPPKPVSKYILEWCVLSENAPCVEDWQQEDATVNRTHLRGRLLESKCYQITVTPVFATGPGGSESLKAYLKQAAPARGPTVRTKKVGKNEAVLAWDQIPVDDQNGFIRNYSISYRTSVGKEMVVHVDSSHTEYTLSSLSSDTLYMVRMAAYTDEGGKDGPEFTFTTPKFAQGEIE
# B1: mgp130_VHH22 (VHH)
# VHH: QVQLQESGGGLVQPGGSLRLSCAVSGFTFSNYAMKWVRQAPGKGLEWVSSISGGGGATYYADSVKGRFTISRDNTKNTLYLQMNSLKTEDTAVYYCAAQNLDYRGQGTQVTVSS
# notes: As periplasmic extract of the phage clone; also called anti-mouse gp130 VHH; not shown: HA/His tag of the pMECS phagemid
# B2: mgp130_VHH48 (VHH)
# VHH: B1 VHH with G10A, V24A, N31Y, K76N, N77D
# notes: as for B1
# B3: mgp130_VHH23 (VHH)
# VHH: QVQLQESGGGLVQPGGSLRLSCTASGFTFNSAHMKWERQPPGKGLEWVSFITPGGASTGYADSVKGRFTISRDNAKNTLYLQMNNLKTEDTAVYYCATGGLRGQGTQVTVSS
# notes: as for B1
# B4: mgp130_VHH44 (VHH)
# VHH: B3 VHH with M34L, P53N, N74D
# notes: as for B1
# B5: mgp130_VHH1 (VHH)
# VHH: QVQLQESGGGSVQAGGSLRLSCVISGFTYRQTFMGWFRQVLGKEREGVAAISTGGGSTVYADSVKGRFTISQDSSKNTVYLEMNGLKLEDTGMYYCAASTVITSVSINRGLYQYWGQGTQVTVSS
# notes: as for B1
# B6: mgp130_VHH2 (VHH)
# VHH: B5 VHH with V23A, L41V, N77D, V105E, G110N
# notes: as for B1
# B7: mgp130_VHH5 (VHH)
# VHH: B5 VHH with L41V, V59I, N77D, V105E, G110N
# notes: as for B1
# B8: mgp130_VHH8 (VHH)
# VHH: B5 VHH with Q31P, S52T, S99T, G110N
# notes: as for B1
# B9: mgp130_VHH9 (VHH)
# VHH: B5 VHH with V23G, Q31P, T58S, I70V
# notes: as for B1
# B10: mgp130_VHH14 (VHH)
# VHH: B5 VHH with R30K, L41P
# notes: as for B1
# B11: mgp130_VHH15 (VHH)
# VHH: B5 VHH with L41V, N77D, V105E, N108Y, G110N
# notes: as for B1
# B12: mgp130_VHH19 (VHH)
# VHH: B5 VHH with V23G, Q31P, T58S, I70V, G110A
# notes: as for B1
# B13: mgp130_VHH21 (VHH)
# VHH: B5 VHH with L20V, V23Q, L41P, V105P, G110N
# notes: as for B1
# B14: mgp130_VHH24 (VHH)
# VHH: B5 VHH with Q31P, S52T, V59L, S99T, G110N
# notes: as for B1
# B15: mgp130_VHH25 (VHH)
# VHH: B5 VHH with R30K, L41P, S106T
# notes: as for B1
# B16: mgp130_VHH26 (VHH)
# VHH: B5 VHH with T28V, R30K, L41P
# notes: as for B1
# B17: mgp130_VHH27 (VHH)
# VHH: B5 VHH with L20V, L41P
# notes: as for B1
# B18: mgp130_VHH31 (VHH)
# VHH: B5 VHH with L41V, N77D, V105E, G110N
# notes: as for B1
# B19: mgp130_VHH32 (VHH)
# VHH: B5 VHH with L20V, I24V, L41P, G110N
# notes: as for B1
# B20: mgp130_VHH36 (VHH)
# VHH: B5 VHH with L41V, T58M, N77D, V105E, G110N
# notes: as for B1
# B21: mgp130_VHH37 (VHH)
# VHH: B5 VHH with S11P, L41P, V105E
# notes: as for B1
# B22: mgp130_VHH39 (VHH)
# VHH: B5 VHH with F27L, R30K, L41P, S74N, G110Y, Y114W
# notes: as for B1
# B23: mgp130_VHH41 (VHH)
# VHH: B5 VHH with V23G, Q31P, N77D, V105E, G110N
# notes: as for B1
# B24: mgp130_VHH45 (VHH)
# VHH: B5 VHH with L20V, L41P, V59I, D62N
# notes: as for B1
# B25: mgp130_VHH47 (VHH)
# VHH: B5 VHH with R30K, L41P, S57N, S106T, I107V
# notes: as for B1
# B26: mgp130_VHH49 (VHH)
# VHH: B5 VHH with R30K, L41P, D73E, S106T
# notes: as for B1
# B27: mgp130_VHH30 (VHH)
# VHH: QVQLQESGGGLVQPGGSLRLSCAASGFTFSSYAMSWVRQAPGKGLEWVSAINSGGGSTYYADSVKGRFTISRDNAKNTLYLQLNSLKTEDTAMYYCAKHVTGDYDPSLRYEYNYWSQGTQVTVSS
# notes: as for B1
# B28: mgp130_VHH4 (VHH)
# VHH: B27 VHH with G56A, S57G, A61T, Y110H, E111G, Y114V
# notes: as for B1
# B29: mgp130_VHH7 (VHH)
# VHH: B27 VHH with G16E, G56A, S57G, A61T, E111G, Y114V
# notes: as for B1
# B30: mgp130_VHH10 (VHH)
# VHH: B27 VHH with A23T, S30R, S31N, Q82R, N84H
# notes: as for B1
# B31: mgp130_VHH11 (VHH)
# VHH: B27 VHH with S30R, S31N, A97T
# notes: as for B1
# B32: mgp130_VHH12 (VHH)
# VHH: B27 VHH with Y95C, E111G, Y114C, S116G, Q117P
# notes: as for B1
# B33: mgp130_VHH16 (VHH)
# VHH: B27 VHH with S30R, S31N, L83M, T88P
# notes: as for B1
# B34: mgp130_VHH17 (VHH)
# VHH: B27 VHH with S30R, S31N, N113A
# notes: as for B1
# B35: mgp130_VHH18 (VHH)
# VHH: B27 VHH with L11S, P14A, G66A, E111D, S116G
# notes: as for B1
# B36: mgp130_VHH20 (VHH)
# VHH: B27 VHH with M34V, A50T, A97T, Y114V
# notes: as for B1
# B37: mgp130_VHH28 (VHH)
# VHH: B27 VHH with N77S, A97T
# notes: as for B1
# B38: mgp130_VHH29 (VHH)
# VHH: B27 VHH with G56A, Y95C, Y114C, S116G, Q117P
# notes: as for B1
# B39: mgp130_VHH33 (VHH)
# VHH: B27 VHH with L79M, T101A, Y112W, N113H, Y114V, S116G
# notes: as for B1
# B40: mgp130_VHH34 (VHH)
# VHH: B27 VHH with S30R, G66A, S116G
# notes: as for B1
# B41: mgp130_VHH35 (VHH)
# VHH: B27 VHH with V100I, S116G
# notes: as for B1
# B42: mgp130_VHH42 (VHH)
# VHH: B27 VHH with E111G, Y114V
# notes: as for B1
# B43: mgp130_VHH43 (VHH)
# VHH: B27 VHH with S53L, G56D, S57T, A61T, N113G
# notes: as for B1
# B44: mgp130_VHH46 (VHH)
# VHH: B27 VHH with Y95C, V100I, Y114C, S116G
# notes: as for B1
# B45: mgp130_VHH38 (VHH)
# VHH: QVQLQESGGGSVQAGGFLRLSCAFSGYTGCMGWFRQGPGQEREGVASINDGGSLTYADSVKGRFTISKDNAKKTLDLQMNTLKPEDTAMYYCAASLSYCLNPTLRVDGYNYWGQGTQVTVSS
# notes: as for B1
# B46: mgp130_VHH40 (VHH)
# VHH: QVQLQESGGGLVQPGGSLRLSCAASGFTFSNYAMSWVRQAPGKGVEWVSAINSGGSVFYADSVKGRFTISRDNAKNTLYLQLSSLKTEDTAMYYCAKHVTGDYDPSLRYGYNVWSQGTQVTVSS
# notes: as for B1
# B47: mgp130_VHH3 (VHH)
# VHH: QVQLQESGGGLVQPGGSLRLSCAASGFTLSTYWIYWVRQAPGKGPEWVSTVSRSGGTTYYADSVNGRFTISRDNAKNTVYLQMNNLKPEDAAVYYCLASVSNLGWPPVRAPSPTGQGTQVTVSS
# notes: as for B1
# Biological target: T1, mgp130 ECD antigen
# Experiment: periplasmic extract ELISA (PE-ELISA) of phage clones
row,Binder,binding result
1,B1,binds
2,B2,binds
3,B3,binds
4,B4,binds
5,B5,binds
6,B6,binds
7,B7,binds
8,B8,binds
9,B9,binds
10,B10,binds
11,B11,binds
12,B12,binds
13,B13,binds
14,B14,binds
15,B15,binds
16,B16,binds
17,B17,binds
18,B18,binds
19,B19,binds
20,B20,binds
21,B21,binds
22,B22,binds
23,B23,binds
24,B24,binds

row,Binder,binding result
1,B25,binds
2,B26,binds
3,B27,binds
4,B28,binds
5,B29,binds
6,B30,binds
7,B31,binds
8,B32,binds
9,B33,binds
10,B34,binds
11,B35,binds
12,B36,binds
13,B37,binds
14,B38,binds
15,B39,binds
16,B40,binds
17,B41,binds
18,B42,binds
19,B43,binds
20,B44,binds
21,B45,binds
22,B46,binds
23,B47,binds
